Measurements from patent US5378822, “Nucleic acids encoding murine and human Ah receptors” (Wisconsin Alumni Research).

How the values were obtained:
[1] = target: AhR-ARNT heterodimer (human AhR + human ARNT) (Homo sapiens, UniProt P35869;P27540 P35869:1-848,P27540:1-789); assay: EMSA; 20 nM TCDD, 2 h room temperature; poly dIdC; ligand dependent; conditions: tags: reticulocyte lysate TNT; label: 32P end-label; 5' TCGA overhangs
Experimental: (§1) A complementary pair of synthetic oligonucleotides, 5'-[…]-3' Sequence ID. No. 16 and 5'-TCGAGCTGGGC-CCATTGCGTGATCTAC-3' Sequence ID. No. 17 (containing DRE3) were annealed and end-labeled with gamma ^32P-labeled deoxyadenosine triphosphate as described. Sambrook, J., Fritsch, E. F., Maniatis, T., *Molecular Cloning: A Laboratory Manual/second edition* (Cold Spring Harbor Laboratory Press, 1989). Cytosolic extracts (35 μg of protein) obtained from either human SCC cells or murine Hepa 1c1c7 cells (From James P. Whitlock Jr.) were incubated in the presence of DMSO (−) or 20 nM TCDD (+) for 2 hours at either room temperature (human) or 30° (murine). Nonspecific competitor, poly dIdC, was added and incubated 15 minutes at room temperature. The radiolabeled probe was then added and incubated 15 minutes at room temperature followed by nondenaturing gel electrophoresis. In vitro translated human AhR and ARNT proteins were incubated with either DMSO (−) or 20 nM TCDD (+) for 2 hours at room temperature followed by gel shift assays as described above. In vitro translated mouse AhR and humanARNT proteins were incubated with either DMSO (−) or 20 nM TCDD (+) for 2 hours at 30° followed by electrophoretic mobility shift assays.

[2] = target: ARNT alone (Homo sapiens, UniProt P27540 P27540:1-789); assay: EMSA; no binding without AhR; conditions: label: 32P end-label; 5' TCGA overhangs
Experimental: as §1

[3] = target: AhR-ARNT heterodimer (mouse AhR + human ARNT) (Mus musculus / Homo sapiens, UniProt P30561;P27540 P30561:1-805,P27540:1-789); assay: EMSA; 20 nM TCDD, 2 h 30 C; poly dIdC; ligand dependent; conditions: tags: reticulocyte lysate TNT; label: 32P end-label; 5' TCGA overhangs
Experimental: as §1

[4] = target: T1, AhR (human) alone (Homo sapiens, UniProt P35869 SEQ:1-848); assay: EMSA; no binding without ARNT; conditions: label: 32P end-label; 5' TCGA overhangs
T1 chain: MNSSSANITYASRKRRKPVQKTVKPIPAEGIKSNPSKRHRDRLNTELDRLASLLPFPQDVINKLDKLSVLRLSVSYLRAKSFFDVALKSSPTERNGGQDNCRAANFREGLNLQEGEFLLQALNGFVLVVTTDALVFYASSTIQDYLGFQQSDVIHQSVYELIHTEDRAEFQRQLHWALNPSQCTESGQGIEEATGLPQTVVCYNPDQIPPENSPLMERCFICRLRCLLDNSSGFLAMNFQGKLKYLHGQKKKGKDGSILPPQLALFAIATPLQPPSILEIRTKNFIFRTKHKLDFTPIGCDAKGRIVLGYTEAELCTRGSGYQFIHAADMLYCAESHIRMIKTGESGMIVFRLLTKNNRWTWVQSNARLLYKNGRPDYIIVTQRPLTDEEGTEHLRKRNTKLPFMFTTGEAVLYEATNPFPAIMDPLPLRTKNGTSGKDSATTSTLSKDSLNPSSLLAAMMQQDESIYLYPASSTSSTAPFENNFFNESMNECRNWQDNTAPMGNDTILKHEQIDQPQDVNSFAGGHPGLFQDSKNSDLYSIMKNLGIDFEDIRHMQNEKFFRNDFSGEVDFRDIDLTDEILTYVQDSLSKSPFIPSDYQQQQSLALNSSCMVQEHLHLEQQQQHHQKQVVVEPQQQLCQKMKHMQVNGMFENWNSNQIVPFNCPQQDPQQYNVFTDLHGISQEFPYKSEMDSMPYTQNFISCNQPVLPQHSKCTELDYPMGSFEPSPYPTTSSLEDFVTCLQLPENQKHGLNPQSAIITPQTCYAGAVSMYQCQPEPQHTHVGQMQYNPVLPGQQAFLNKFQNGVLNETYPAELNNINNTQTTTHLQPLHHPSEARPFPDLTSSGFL
Experimental: as §1

Sequence of AhR-ARNT heterodimer (mouse AhR + human ARNT) (P30561 1-805, chain 1 of 2): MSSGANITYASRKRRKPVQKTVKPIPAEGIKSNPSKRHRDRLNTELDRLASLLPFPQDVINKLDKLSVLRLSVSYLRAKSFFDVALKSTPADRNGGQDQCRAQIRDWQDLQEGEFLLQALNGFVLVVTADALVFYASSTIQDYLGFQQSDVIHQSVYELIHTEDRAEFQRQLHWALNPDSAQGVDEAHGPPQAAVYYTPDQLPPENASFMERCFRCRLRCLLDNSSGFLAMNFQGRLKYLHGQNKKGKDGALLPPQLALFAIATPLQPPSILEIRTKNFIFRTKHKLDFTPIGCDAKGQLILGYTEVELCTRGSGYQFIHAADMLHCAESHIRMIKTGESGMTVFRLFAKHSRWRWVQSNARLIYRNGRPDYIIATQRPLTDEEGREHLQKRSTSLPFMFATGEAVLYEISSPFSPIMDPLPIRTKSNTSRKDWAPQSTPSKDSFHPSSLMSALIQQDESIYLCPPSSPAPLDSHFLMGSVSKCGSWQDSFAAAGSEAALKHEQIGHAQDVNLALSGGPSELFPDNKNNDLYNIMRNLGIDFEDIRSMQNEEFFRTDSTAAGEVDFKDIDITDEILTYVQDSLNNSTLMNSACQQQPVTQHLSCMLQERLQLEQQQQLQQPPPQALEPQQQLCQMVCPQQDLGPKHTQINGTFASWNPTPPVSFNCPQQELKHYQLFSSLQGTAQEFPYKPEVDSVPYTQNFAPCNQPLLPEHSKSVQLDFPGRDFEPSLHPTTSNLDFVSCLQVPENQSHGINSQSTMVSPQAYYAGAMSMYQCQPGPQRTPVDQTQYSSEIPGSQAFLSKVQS
Sequence of AhR-ARNT heterodimer (mouse AhR + human ARNT) (P27540 whole entry, chain 2 of 2): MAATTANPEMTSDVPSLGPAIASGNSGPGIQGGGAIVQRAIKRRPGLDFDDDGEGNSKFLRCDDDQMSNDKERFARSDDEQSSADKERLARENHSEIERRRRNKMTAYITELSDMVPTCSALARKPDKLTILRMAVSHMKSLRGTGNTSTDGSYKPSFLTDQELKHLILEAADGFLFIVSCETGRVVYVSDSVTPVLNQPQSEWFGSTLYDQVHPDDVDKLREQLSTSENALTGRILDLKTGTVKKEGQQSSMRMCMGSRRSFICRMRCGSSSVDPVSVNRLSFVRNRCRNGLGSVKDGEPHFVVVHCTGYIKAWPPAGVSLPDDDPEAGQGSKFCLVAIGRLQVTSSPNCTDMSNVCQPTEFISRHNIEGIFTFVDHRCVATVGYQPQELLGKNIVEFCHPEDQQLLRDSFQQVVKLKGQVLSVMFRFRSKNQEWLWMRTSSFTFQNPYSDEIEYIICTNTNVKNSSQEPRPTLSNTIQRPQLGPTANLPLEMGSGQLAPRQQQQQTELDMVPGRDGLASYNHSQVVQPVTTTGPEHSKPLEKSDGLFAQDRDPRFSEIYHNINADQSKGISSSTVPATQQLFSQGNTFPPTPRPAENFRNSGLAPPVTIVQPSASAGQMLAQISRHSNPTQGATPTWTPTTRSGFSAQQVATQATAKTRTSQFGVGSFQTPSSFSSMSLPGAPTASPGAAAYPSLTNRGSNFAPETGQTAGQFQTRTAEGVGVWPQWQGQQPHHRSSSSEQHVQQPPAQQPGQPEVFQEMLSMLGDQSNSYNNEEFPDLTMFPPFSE
Sequence of ARNT alone (P27540 whole entry, one chain of several): as the sequence (P27540 whole entry, chain 2 of 2) above
Sequence of AhR-ARNT heterodimer (human AhR + human ARNT) (P27540 whole entry, one chain of several): as the sequence (P27540 whole entry, chain 2 of 2) above

B1: DRE3 (dsDNA)
DNA 1: TCGAGTAGATCACGCAATGGGCCCAGC
DNA 2: TCGAGCTGGGCCCATTGCGTGATCTAC
- binding result [1]: binds
- binding result [2]: no binding
- binding result [3]: binds
- binding result [4]: no binding
